Each block holds one molecule with its values, some of them ahead of it.
Experiments:
[1] = system: recombinant EC-Met and Sema domain proteins; experiment: Coimmunoprecipitation with recombinant EC-Met and Sema domain proteins; type: binding; conditions: data not shown
[2] = system: H441 cells; experiment: Scrape assay (Met mediated cell motility); type: cell-based, Human
Description: H441 cells were seeded at a density of 4.5×10^4 cells/well in a 96-well plate with 10% FBS in 50:50 DMEM/F12. The next day, a single scrape was made in the confluent monolayer in each well as described previously (Lorenzato et al., 2002). The cells were then incubated with media containing 0.5% BSA and treated with mock, 10 μg/ml 5D5, 10 μg/ml Sema, or 100 ng/ml HGF. The scrape was monitored and photographed daily. Representative results are shown for Day 2.
H441 cells were used in a scrape assay as a measure of Met mediated cell motility (Lorenzato et al., 2002). H441 cells grown to high density were scraped in each well on day 0 and maintained in serum-free media containing 0.5% BSA for the duration of the experiment (FIG. 6). Cells were either treated with 10 μg/ml rSema or 5D5 or 100 ng/ml HGF as a positive control or mock treated. […] These observations were consistent in four separate experiments.
To examine the effect of rSema on cell motility in the presence of ligand, cells were treated with 0, 0.1, 0.5, or 5 μg/ml rSema plus 20 ng/ml HGF. Cells treated with HGF alone closed the gap completely by Day 1.

[3] = biological target: T1, Met extracellular domain deletion mutants (EC-WT, ΔS, ΔP, ΔIPT3, TM) (Homo sapiens, UniProt P08581); experiment: Co-immunoprecipitation of HGF / scHGF with V5/His-tagged Met deletion mutants; type: binding; conditions: lysates of transfected 293 cells incubated with 5 μg HGF or scHGF, HGF α chain immunoblot
T1 construct: Sub-domain deletions of the Met extracellular domain were made from the N-terminus and tagged after the TM region with V5/His; expressed in transfected cells; host or cells: 293 cells (lysates)
T1 sequence (P08581 308-959 limits assumed, stated change not applied, one chain of several): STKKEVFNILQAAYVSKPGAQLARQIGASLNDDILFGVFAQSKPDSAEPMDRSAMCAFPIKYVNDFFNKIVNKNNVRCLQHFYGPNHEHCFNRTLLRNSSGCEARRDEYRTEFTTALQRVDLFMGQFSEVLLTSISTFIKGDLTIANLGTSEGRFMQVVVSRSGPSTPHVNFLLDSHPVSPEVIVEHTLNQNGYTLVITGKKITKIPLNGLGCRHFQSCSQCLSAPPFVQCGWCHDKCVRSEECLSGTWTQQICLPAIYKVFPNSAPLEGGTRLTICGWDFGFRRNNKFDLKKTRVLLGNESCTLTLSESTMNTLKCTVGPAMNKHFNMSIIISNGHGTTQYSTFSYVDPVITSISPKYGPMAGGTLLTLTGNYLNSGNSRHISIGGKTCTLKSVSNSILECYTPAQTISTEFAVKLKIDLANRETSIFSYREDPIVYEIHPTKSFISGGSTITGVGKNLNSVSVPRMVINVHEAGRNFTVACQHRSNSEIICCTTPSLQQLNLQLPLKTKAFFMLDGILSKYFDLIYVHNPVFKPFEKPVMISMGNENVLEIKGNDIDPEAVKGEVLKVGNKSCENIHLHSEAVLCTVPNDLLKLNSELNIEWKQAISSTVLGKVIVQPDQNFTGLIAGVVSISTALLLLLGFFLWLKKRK
Excerpt: Extracellular sub-domain deletions of c-Met were constructed using conventional PCR methods. N-terminal primers containing the start of Sema, PSI, first IPT, or fourth IPT domains flanked by a KpnI site were paired with a C-terminal primer up to Met residue 959 flanked by a StuI site. c-Met was used as template and the PCR fragments for each clone were inserted into pCR-Blunt II-TOPO vector using the Zero Blunt TOPO PCR cloning kit (Invitrogen) according to manufacturer's instructions. The clones were confirmed by DNA sequencing. The constructs were then subcloned into pcDNA3.1 V5/His vector (Invitrogen) via KpnI and EcoRV to add a tag at the C-terminus. The signal peptide of Met was added via the HindIII and KpnI sites at the N-terminus of each clone. Each clone was digested with HindIII and EcoRV and subcloned into pRK5TKneo vector via HindIII and PmeI. For EC-WT Flag and EC-WT V5/His clones, an N-terminal primer containing a HindIII site was paired with a C-terminal primer up to Met residue 595 flanked by a StuI site. EC-WT V5/His was subcloned via HindIII/StuI into the HindIII/EcoRV sites of pcDNA3.1 V5/His, and then subcloned into pRK5TKneo as described above. For EC-WT Flag, the PCR fragment was ligated to pCR-Blunt II-TOPO vector. […]
Cell lines were obtained from American Type Culture Collection (ATCC). […] Proteins were detected by enhanced chemiluminescence (ECL-Plus, Amersham). […]

[4] = biological target: T2, Met (Homo sapiens, UniProt P08581); conditions: Lokker et al., 1992; cited from earlier work
Target sequence in this assay (P08581 25-1390): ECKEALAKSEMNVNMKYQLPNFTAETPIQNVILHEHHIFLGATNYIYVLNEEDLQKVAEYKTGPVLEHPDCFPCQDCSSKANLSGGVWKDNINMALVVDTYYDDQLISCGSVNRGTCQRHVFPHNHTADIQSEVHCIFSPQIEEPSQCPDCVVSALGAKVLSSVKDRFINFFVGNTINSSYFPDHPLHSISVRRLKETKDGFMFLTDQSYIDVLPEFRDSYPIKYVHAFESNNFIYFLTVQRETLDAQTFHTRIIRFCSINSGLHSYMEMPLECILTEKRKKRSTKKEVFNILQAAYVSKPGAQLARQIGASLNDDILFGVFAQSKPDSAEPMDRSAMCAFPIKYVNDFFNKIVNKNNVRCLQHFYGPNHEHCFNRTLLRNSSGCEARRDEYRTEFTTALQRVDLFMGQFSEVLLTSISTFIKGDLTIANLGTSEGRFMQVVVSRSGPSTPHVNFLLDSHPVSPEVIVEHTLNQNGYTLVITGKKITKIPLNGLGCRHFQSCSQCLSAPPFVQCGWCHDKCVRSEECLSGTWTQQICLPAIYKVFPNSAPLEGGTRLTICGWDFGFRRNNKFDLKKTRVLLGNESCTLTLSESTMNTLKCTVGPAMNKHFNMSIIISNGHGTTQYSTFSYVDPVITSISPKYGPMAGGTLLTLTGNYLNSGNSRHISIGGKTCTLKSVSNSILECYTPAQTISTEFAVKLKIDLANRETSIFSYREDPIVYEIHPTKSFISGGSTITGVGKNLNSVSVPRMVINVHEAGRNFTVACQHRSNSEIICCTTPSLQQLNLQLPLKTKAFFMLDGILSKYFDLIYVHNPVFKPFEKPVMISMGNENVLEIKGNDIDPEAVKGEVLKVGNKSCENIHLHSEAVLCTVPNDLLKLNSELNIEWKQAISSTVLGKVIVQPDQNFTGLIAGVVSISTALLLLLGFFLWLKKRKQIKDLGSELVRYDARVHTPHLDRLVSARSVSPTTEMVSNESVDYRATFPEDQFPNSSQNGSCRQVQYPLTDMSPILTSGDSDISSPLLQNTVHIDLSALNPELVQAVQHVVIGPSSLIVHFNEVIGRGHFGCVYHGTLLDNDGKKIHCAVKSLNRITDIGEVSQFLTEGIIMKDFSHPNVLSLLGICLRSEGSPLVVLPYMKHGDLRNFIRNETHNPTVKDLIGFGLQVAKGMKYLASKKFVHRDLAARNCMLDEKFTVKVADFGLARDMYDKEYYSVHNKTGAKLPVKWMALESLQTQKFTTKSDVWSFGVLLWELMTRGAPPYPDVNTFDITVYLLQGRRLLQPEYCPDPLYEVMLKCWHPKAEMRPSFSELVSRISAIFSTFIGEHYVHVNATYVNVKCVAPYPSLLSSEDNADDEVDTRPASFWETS

[5] = system: Akt; experiment: Akt phosphorylation in H441 cells; type: cell-based, Human; conditions: H441, increasing concentrations of rSema in the presence of HGF; data not shown
Excerpt: (§1) A transwell assay with MDA-MB-435 cells was used to measure Met driven cell migration (Coltella et al., 2003). […] The data correlated with the scrape assay results in the H441 cell line. Activation of Akt was also examined in H441 and MDA-MB-435 cells used in the cell motility and migration assays. […] The data correlated with observations that rSema can inhibit cell motility in the presence of ligand. Taken together, these observations supports the conclusion that a Sema domain antagonist, such as a recombinant polypeptide comprising a Sema sequence, is capable of not only inhibiting Met activation, but also blocking downstream effects of cell motility and migration in both ligand dependent and independent contexts.

[6] = system: MDA-MB-435 cells; experiment: Transwell migration assay; type: cell-based, Human; conditions: MDA-MB-435, 10 μg/ml in upper chamber, absence of HGF, vs mock
Description: Transwell migration assays were carried out as previously described with modifications (Coltella et al., 2003). MDA-MB-435 cells were seeded at 1.2×10^5 cells in media containing 0.5% BSA to the upper chamber of each transwell (Costar) that had been previously coated with 10 ug/ml collagen type IV (Sigma). Mock, 10 μg/ml anti-Met 5D5-Fab, or 10 μg/ml Sema was added to the upper chamber. As a positive control, 100 ng/ml HGF was also added to the lower chamber of mock-treated wells. The next day, the cells were fixed with 4% paraformaldehyde and stained with 0.5% crystal violet. Cells that had migrated to the lower chamber were solubilized with 10% acetic acid and the absorbance was measured at 560 nm in a microplate reader.
A transwell assay with MDA-MB-435 cells was used to measure Met driven cell migration (Coltella et al., 2003). […] The data correlated with the scrape assay results in the H441 cell line. Activation of Akt was also examined in H441 and MDA-MB-435 cells used in the cell motility and migration assays. […] The data correlated with observations that rSema can inhibit cell motility in the presence of ligand. […]

[7] = system: MAPK; experiment: MAPK phosphorylation in MDA-MB-435 cells (immunoblot); type: cell-based, Human
Description: (§2) Cell lines were obtained from American Type Culture Collection (ATCC). 293 cells were maintained in DMEM supplemented with 10% FBS (Sigma), penicillin/streptomycin (GIBCO), and glutamine A549, H441, and MDA-MB-435 cells were maintained in 50:50 DMEM/F12 (Cellgro) supplemented with 10% FBS, penicillin/streptomycin, and glutamine Cells were transfected with 1-12 μg of the indicated constructs using Lipofectamine 2000 (Invitrogen) according to manufacturer's instructions. Twenty-four hrs later cells were harvested with 1% NP40 lysis buffer containing Complete protease inhibitor cocktail tablet and phosphatase inhibitor cocktail 2 (Roche and Sigma, respectively). For Met tyrosine phosphorylation and MAPK phosphorylation studies, cells were serum-starved for 2 hr with 0.5% BSA. Cells treated with 10 μg/ml anti-Met 5D5-Fab or rSema were incubated for an additional 1 hr prior to lysis. Cell debris was centrifuged and the supernatant was precleared with Protein A Sepharose (Sigma) or Protein G-Plus agarose beads (Santa Cruz) for 1 hr. […] Proteins were detected by enhanced chemiluminescence (ECL-Plus, Amersham).
(§3) Human tumor cells were treated with increasing concentrations of rSema and analyzed for Met tyrosine phosphorylation and downstream activation of mitogen activated protein kinase (MAPK) upon HGF stimulation. […]

[8] = biological target: T2, Met; experiment: Met tyrosine phosphorylation in A549 cells (immunoprecipitation / phosphotyrosine immunoblot); type: cell-based; parameters: endogenous in cells; host or cells: A549 (lung carcinoma)
Description: as §2, with “hr. 500 μg of lysates was then immunoprecipitated with 10 μg 5D5 antibody (Genentech) or 35 ul of Met (C-28) agarose conjugate (Santa Cruz) overnight at 4° C. with rotation. For HGF binding studies, 500 μg of lysates were incubated with 5 μg scHGF or HGF followed by immunoprecipitation with 1 μg of V5 antibody. Protein A or G beads were added for an additional 2 hrs before immunoprecipitates were washed 3 times with 1% NP40 lysis buffer. After addition of 2× sample buffer with 10 mM DTT, the samples were run on 4-12% Tris-glycine gels (Invitrogen).” for “hr.”
as §3
Target sequence in this assay (P08581 308-1390, one chain of several): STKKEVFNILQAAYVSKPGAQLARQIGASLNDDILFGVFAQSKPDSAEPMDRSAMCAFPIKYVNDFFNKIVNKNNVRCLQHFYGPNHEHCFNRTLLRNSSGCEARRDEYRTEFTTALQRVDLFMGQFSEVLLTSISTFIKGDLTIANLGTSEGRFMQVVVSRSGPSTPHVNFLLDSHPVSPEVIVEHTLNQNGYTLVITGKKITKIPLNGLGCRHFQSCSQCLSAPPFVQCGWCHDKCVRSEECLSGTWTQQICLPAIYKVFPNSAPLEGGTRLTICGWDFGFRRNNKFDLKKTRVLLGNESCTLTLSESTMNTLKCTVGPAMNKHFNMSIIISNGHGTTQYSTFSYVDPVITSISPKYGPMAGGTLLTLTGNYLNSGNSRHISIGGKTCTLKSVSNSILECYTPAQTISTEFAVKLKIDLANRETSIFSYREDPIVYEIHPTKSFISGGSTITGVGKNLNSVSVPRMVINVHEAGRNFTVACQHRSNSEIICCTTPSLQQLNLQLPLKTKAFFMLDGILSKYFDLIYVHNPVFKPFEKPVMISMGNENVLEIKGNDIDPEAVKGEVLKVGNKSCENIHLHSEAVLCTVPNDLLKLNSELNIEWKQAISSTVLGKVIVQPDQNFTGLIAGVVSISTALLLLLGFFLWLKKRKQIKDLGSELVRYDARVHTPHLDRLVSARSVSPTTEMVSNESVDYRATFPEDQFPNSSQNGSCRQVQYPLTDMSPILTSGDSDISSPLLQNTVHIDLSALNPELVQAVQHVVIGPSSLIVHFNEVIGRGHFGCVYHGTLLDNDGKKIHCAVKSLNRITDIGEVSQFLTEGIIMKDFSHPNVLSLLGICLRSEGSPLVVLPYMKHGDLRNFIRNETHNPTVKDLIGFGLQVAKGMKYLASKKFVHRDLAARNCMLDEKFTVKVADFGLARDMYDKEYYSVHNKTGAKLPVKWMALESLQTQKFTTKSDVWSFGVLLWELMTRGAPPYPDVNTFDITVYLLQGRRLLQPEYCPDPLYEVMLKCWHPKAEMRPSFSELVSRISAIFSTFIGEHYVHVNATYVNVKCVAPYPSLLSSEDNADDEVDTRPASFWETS

[9] = system: MAPK; experiment: MAPK phosphorylation in H441 cells (immunoblot); type: cell-based, Human
Description: as §2, §3

[10] = system: Akt; experiment: Akt phosphorylation in MDA-MB-435 cells; type: cell-based, Human; conditions: MDA-MB-435, increasing concentrations of rSema in the presence of HGF; data not shown
Excerpt: as §1

[11] = system: MAPK; experiment: MAPK phosphorylation in A549 cells (immunoblot); type: cell-based, Human
Description: as §2, with “hr. 500 μg of lysates was then immunoprecipitated with 10 μg 5D5 antibody (Genentech) or 35 ul of Met (C-28) agarose conjugate (Santa Cruz) overnight at 4° C. with rotation. For HGF binding studies, 500 μg of lysates were incubated with 5 μg scHGF or HGF followed by immunoprecipitation with 1 μg of V5 antibody. Protein A or G beads were added for an additional 2 hrs before immunoprecipitates were washed 3 times with 1% NP40 lysis buffer. After addition of 2× sample buffer with 10 mM DTT, the samples were run on 4-12% Tris-glycine gels (Invitrogen).” for “hr.”
as §3

[12] = A549, serum-free, 10 μg/ml, absence of HGF, vs mock

- binding to Met deletion mutants [3]: bound EC-WT alone
Molecule: HGF: Recombinant HGF, cognate ligand of the Met receptor; positive control
- binding to recombinant EC-Met and Sema domain proteins [1]: bound to recombinant EC-Met and Sema domain proteins
- gap closure in scrape assay (positive control) ([2]; H441, 100 ng/ml HGF, serum-free): closed the gap by Day 1

Molecule: scHGF (R494E): Single-chain HGF containing an R494E mutation [reference compound]
- binding to recombinant EC-Met and Sema domain proteins [1]: bound to recombinant EC-Met and Sema domain proteins
- binding and activation of the Met receptor [4]: binds and inhibits activation of the Met receptor
- binding to Met deletion mutants [3]: only binds EC-WT and not the Sema deleted mutants

- Met phosphorylation ([8]; A549, serum starved, 0-100 μg/ml rSema with 10 ng/ml HGF, 10 min): decrease in Met phosphorylation
- ligand independent Met phosphorylation [8, 12]: inhibition
B1: rSema: recombinant Sema (rSema) protein, which included the Sema and PSI domains of the Met receptor (residues 25-567, 8×His tag) (protein)
chain: ECKEALAKSEMNVNMKYQLPNFTAETPIQNVILHEHHIFLGATNYIYVLNEEDLQKVAEYKTGPVLEHPDCFPCQDCSSKANLSGGVWKDNINMALVVDTYYDDQLISCGSVNRGTCQRHVFPHNHTADIQSEVHCIFSPQIEEPSQCPDCVVSALGAKVLSSVKDRFINFFVGNTINSSYFPDHPLHSISVRRLKETKDGFMFLTDQSYIDVLPEFRDSYPIKYVHAFESNNFIYFLTVQRETLDAQTFHTRIIRFCSINSGLHSYMEMPLECILTEKRKKRSTKKEVFNILQAAYVSKPGAQLARQIGASLNDDILFGVFAQSKPDSAEPMDRSAMCAFPIKYVNDFFNKIVNKNNVRCLQHFYGPNHEHCFNRTLLRNSSGCEARRDEYRTEFTTALQRVDLFMGQFSEVLLTSISTFIKGDLTIANLGTSEGRFMQVVVSRSGPSTPHVNFLLDSHPVSPEVIVEHTLNQNGYTLVITGKKITKIPLNGLGCRHFQSCSQCLSAPPFVQCGWCHDKCVRSEECLSGTWTQQICLPAIYKHHHHHHHH
- Akt phosphorylation [5]: dose dependent decrease in Akt phosphorylation
- gap closure in scrape assay in the presence of ligand ([2]; 0, 0.1, 0.5 or 5 μg/ml rSema plus 20 ng/ml HGF, data not shown): retained the gap in a dose dependent manner
- gap closure in scrape assay ([2]; H441, 10 μg/ml, serum-free, absence of HGF, Day 2, mock gap closed completely): a gap remained
- cell migration (absorbance at 560 nm of migrated cells) [6]: consistently decreased
- phospho-MAPK ([7]; MDA-MB-435, 0-100 μg/ml rSema plus 10 ng/ml HGF, 5 min): dose dependent decrease in phospho-MAPK
- MAPK phosphorylation ([7]; MDA-MB-435, 10 μg/ml, absence of HGF): decrease in MAPK phosphorylation
- phospho-MAPK ([9]; H441, 0-100 μg/ml rSema plus 5 ng/ml HGF, 5 min): dose dependent decrease in phospho-MAPK
- MAPK phosphorylation ([9]; H441, 10 μg/ml, absence of HGF): decrease in MAPK phosphorylation
- Akt phosphorylation [10]: dose dependent decrease in Akt phosphorylation
- phosphorylation of MAPK ([11]; A549, increasing concentrations of rSema in the presence of HGF (10 ng/ml)): phosphorylation of MAPK decreased
- phospho-MAPK levels [11, 12]: inhibition

Source: patent US20120171210A1, “METHODS AND COMPOSITIONS FOR INHIBITING C-MET DIMERIZATION AND ACTIVATION” (Genentech, Inc., priority 2003, published 2012)
